{"source": "paper doi:10.1101/2023.04.13.536481", "about": "(bioRxiv, 2023)", "proteins": {"B1": {"name": "LIN-42 N-terminus residues 41-315 (domain or fragment, C. elegans)", "chain": "GAMDPEFNTWSSSSVEFLDDADDNRLLFTCTFTLPHGTVLSSATYADGFHEQYLTIGDNFLARLEPKGQSFILSAAAASVKQRIFARVTMPDGALRACELLCEFETDRAKITVLALRSAFSLQASHVSSNFHVFTFITKHSSTCALTHIDYASIPYLGLLPTDLIGKSLLAFVYSPDVHVVRQAHIDLHNSRGKIVKSIADLRLVAHNGSILRCQTEWSAYVNPWTRKMELVVARHRICSLPIGDSDVISSPPPGIQSNTLPPVMAKTFEDELRTIMNKPVP"}}, "biological_target": "the molecule itself", "assay": "crystal structure", "data": [{"protein": "B1", "values": [{"measurement": "binding result", "result": "binds"}]}]}
